Source: patent publication US20240010684A1 (Bayer, published 2024)
Read-outs that look alike come from different tables or passages of the source. Each block holds one binder with its values, some of them ahead of it. Bridges are numbered along the chain shown (N, C = ends). [ ]: non-standard residue; d: D form. tBuAla = CC(C)(C)C[C@H](N)C(=O)O; Pen = CC(C)(S)[C@H](N)C(=O)O; Ahx = NCCCCCC(=O)O; Sar = CNCC(=O)O

Tests used:
Assay in all cases: cell-based or functional assay
[1] = molecular target: T1, recombinant rat MASP2 (amino acids 296-685, C-terminal His Tag) (rat, UniProt Q9JJS8 296-685)
T1 sequence (Q9JJS8 other isoform, or with tags, fused parts or gaps limits assumed): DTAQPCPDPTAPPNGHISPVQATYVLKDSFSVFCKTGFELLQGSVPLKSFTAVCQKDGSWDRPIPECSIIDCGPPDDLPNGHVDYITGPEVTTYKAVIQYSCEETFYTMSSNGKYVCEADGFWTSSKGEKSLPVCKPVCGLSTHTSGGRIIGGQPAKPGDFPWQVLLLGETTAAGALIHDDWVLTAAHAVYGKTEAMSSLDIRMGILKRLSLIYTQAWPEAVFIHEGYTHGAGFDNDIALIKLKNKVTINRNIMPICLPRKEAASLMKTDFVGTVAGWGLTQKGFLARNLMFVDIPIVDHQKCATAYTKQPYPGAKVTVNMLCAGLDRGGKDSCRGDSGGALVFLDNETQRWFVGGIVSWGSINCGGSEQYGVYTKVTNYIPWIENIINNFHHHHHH

[2] = molecular target: T2, recombinant rat MASP1 (amino acids 302-704, C-terminal His Tag) (rat, UniProt Q8CHN8 302-704)
T2 sequence: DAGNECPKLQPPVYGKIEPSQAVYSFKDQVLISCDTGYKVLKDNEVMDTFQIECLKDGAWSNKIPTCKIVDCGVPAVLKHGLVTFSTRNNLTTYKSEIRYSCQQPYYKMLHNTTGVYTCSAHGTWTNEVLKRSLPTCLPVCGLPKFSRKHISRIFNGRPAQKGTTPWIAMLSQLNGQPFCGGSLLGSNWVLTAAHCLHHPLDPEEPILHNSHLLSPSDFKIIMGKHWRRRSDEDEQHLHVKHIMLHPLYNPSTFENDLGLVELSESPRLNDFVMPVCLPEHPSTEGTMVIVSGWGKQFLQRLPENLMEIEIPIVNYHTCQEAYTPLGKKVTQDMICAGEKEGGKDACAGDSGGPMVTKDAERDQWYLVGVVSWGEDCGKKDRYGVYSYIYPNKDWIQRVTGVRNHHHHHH

[3] = molecular target: T3, recombinant human MASP2 (amino acids 297-686, C-terminal His Tag) (human, UniProt O00187 297-686)
T3 sequence (O00187 other isoform, or with tags, fused parts or gaps limits assumed): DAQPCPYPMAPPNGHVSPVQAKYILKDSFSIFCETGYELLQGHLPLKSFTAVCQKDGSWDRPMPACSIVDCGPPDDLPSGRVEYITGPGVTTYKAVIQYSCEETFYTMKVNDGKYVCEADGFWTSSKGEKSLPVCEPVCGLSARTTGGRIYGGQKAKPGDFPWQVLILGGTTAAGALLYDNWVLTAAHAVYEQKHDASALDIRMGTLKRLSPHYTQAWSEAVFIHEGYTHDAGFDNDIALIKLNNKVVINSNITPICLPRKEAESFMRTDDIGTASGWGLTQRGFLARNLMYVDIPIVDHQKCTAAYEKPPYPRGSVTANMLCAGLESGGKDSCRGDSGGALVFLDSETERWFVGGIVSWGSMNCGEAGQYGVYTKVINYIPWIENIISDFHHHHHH

[4] = molecular target: T4, recombinant human MASP1 (amino acids 297-699, C-terminal His Tag) (human, UniProt P48740 297-699)
T4 sequence: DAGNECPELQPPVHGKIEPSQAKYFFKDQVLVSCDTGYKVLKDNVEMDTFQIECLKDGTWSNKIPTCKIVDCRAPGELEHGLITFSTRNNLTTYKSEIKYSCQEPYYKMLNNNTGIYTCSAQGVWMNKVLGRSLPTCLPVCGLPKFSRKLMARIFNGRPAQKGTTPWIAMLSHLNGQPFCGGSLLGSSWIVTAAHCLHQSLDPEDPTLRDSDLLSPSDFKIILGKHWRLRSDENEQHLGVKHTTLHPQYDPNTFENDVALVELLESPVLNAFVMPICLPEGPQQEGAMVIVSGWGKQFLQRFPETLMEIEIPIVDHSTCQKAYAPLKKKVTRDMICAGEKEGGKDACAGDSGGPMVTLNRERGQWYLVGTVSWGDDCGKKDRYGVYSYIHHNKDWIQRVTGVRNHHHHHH

[5] = molecular target: T1, recombinant rat MASP2 (amino acids …); remark: listed apart in the source
[6] = molecular target: T2, recombinant rat MASP1 (amino acids …); remark: listed apart in the source
[7] = molecular target: T3, recombinant human MASP2 (amino acids …); remark: listed apart in the source
[8] = molecular target: T4, recombinant human MASP1 (amino acids …); remark: listed apart in the source

rat MASP2 IC50 [1]: 232 nM | rat MASP1 IC50 [2]: 1000 nM | human MASP2 IC50 [3]: 895 nM | human MASP1 IC50 [4]: 145 nM
B1: Bicyclic SFMI-1: G**IC+SRSLPPIC+IPD** (peptide)
peptide: cyclo(GICSRSLPPICIPD)
modifications: disulfide 3-11
SMILES: CC[C@H](C)[C@@H]1NC(=O)CNC(=O)[C@H](CC(=O)O)NC(=O)[C@@H]2CCCN2C(=O)[C@H]([C@@H](C)CC)NC(=O)[C@@H]2CSSC[C@H](NC1=O)C(=O)N[C@@H](CO)C(=O)N[C@@H](CCCNC(=N)N)C(=O)N[C@@H](CO)C(=O)N[C@@H](CC(C)C)C(=O)N1CCC[C@H]1C(=O)N1CCC[C@H]1C(=O)N[C@@H]([C@@H](C)CC)C(=O)N2

rat MASP2 IC50 [1]: 126 nM | rat MASP1 IC50 [2]: 1000 nM | human MASP1 IC50 [4]: 8130 nM
B2: Bicyclic SFMI-2: G**YC+SRSYPPVC+IPD** (peptide)
peptide: cyclo(GYCSRSYPPVCIPD)
modifications: disulfide 3-11
SMILES: CC[C@H](C)[C@@H]1NC(=O)[C@@H]2CSSC[C@H](NC(=O)[C@H](Cc3ccc(O)cc3)NC(=O)CNC(=O)[C@H](CC(=O)O)NC(=O)[C@@H]3CCCN3C1=O)C(=O)N[C@@H](CO)C(=O)N[C@@H](CCCNC(=N)N)C(=O)N[C@@H](CO)C(=O)N[C@@H](Cc1ccc(O)cc1)C(=O)N1CCC[C@H]1C(=O)N1CCC[C@H]1C(=O)N[C@@H](C(C)C)C(=O)N2

rat MASP2 IC50 [1]: 1000 nM | rat MASP1 IC50 [2]: 1000 nM | human MASP2 IC50 [3]: 5000 nM | human MASP1 IC50 [4]: 4800 nM
B3: Reference peptide 12: P**FC+IPPISKTC+RGD** (peptide)
peptide: cyclo(PFCIPPISKTCRGD)
modifications: disulfide 3-11
SMILES: CC[C@H](C)[C@@H]1NC(=O)[C@@H]2CCCN2C(=O)[C@@H]2CCCN2C(=O)[C@H]([C@@H](C)CC)NC(=O)[C@@H]2CSSC[C@H](NC(=O)[C@H]([C@@H](C)O)NC(=O)[C@H](CCCCN)NC(=O)[C@H](CO)NC1=O)C(=O)N[C@@H](CCCNC(=N)N)C(=O)NCC(=O)N[C@@H](CC(=O)O)C(=O)N1CCC[C@H]1C(=O)N[C@@H](Cc1ccccc1)C(=O)N2

rat MASP2 IC50 [5]: 18 nM | rat MASP1 IC50 [6]: 180 nM | human MASP2 IC50 [7]: 33 nM | human MASP1 IC50 [8]: 8.5 nM
B4: Example 54: (Ahx)**-((N-Me)G)-IC+SRS-((tBu)A)-PPI-(Pen)+-IP** (peptide)
peptide: cyclo([Ahx][Sar]ICSRS[tBuAla]PPI[Pen]IP)
modifications: disulfide 4-12; also: TFA salt

rat MASP2 IC50 [5]: 46 nM | rat MASP1 IC50 [6]: 110 nM | human MASP2 IC50 [7]: 650 nM | human MASP1 IC50 [8]: 9 nM
B5: Example 58: I**C+SRS-((tBu)A)-PPI-(Pen)+-IPP** (peptide)
peptide: cyclo(ICSRS[tBuAla]PPI[Pen]IPP)
modifications: disulfide 2-10; also: TFA salt
